Here are results for 1 substance from PMC2119780.

This test has as its target fibronectin receptors (alpha5beta1) on the adherent CHO cell line (Chinese hamster (endogenous in CHO)). Description: radioligand binding.

“human plasma fibronectin (ligand; labeled with 125Iodine (modified Chloramine-T procedure) in the binding assays)”: the Kd amounted to 0.095 µM.

Broadly, the Kd is a measure of binding affinity in units of concentration. A high value points to weaker binding.
